Assay results from US20190218553, “VON WILLEBRAND FACTOR (VWF)-TARGETING AGENTS AND METHODS OF USING THE SAME” (DUKE UNIVERSITY, published 2019).

Target: von Willebrand factor (VWF) (Homo sapiens, UniProt P04275 P04275:764-2813)
Test: filter; Bmax 74%; 2 mM CaCl2, 37 C
Details: tags: factor VIII free human purified VWF, Haematologic Technologies Inc; label: 5'-32P
Description: Affinity constants (Kd values) were determined using double-filter nitrocellulose filter binding assays (Rusconi et al, Thromb. Haemost. $4:841-848 (2000)). All binding studies were performed in binding buffer F (20 mM HEPES, pH 7.4, 150 mM NaCl, 2 mM CaCl₂, and 0.01% BSA) at 37° C. Human purified VWF (factor VIII free) was purchased from Haematologic Technologies Inc. (Essex Junction, Vt.) and used in the double-filter nitrocellulose filter binding assay to determine the Kd of the aptamers. Briefly, RNA were end-labeled at the 5′ end with T4 polynucleotide kinase (New England Biolabs, Beverly, Mass.) and [γ³²P] ATP (Amersham Pharmacia Biotech, Piscataway, N.J.) (Fitzwater and Polisky, Methods Enzymol. 267:275-301 (1996)). End-labeled RNA was diluted in binding buffer F, heat denatured at 65° C. for 5 minutes, and subsequently equilibrated at 37° C. Direct binding was performed by incubating trace ³²P-RNA with varying concentrations of VWF protein in binding buffer F at 37° C. for 5 min. The fraction of the nucleic acid-protein complex which bound to the nitrocellulose membrane was quantified with a phosphorimager (Molecular Dynamics, Sunnyvale, Calif.). Non-specific binding of the radiolabeled nucleic acid was subtracted out of the binding such that only specific binding remained (Wong and Lohman, Proc. Natl. Acad. Sci. USA 90:5428-5432 (1993)).

B1: T84 vrt7 (ssRNA)
RNA: ACGAACUGCCCUCGAUCGACGCACAGACGUACACG
modifications: 2'-F C9,C10,C11,C20,G21,C22; rest 2'-OMe; 3' idT
- Kd: 182 nM
